Results reported in patent publication US20230287145A1 (Hoffmann-La Roche, published 2023).

Columns and labels:
[1] = target: T1, biotinylated anti-human CD3 IgG (anti-CD3 P035.093) (biotinylated (site not stated)); assay: SPR; biotinylated anti-CD3 P035.093 IgG on CAP chip, anti-idiotypic IgG at 1 µg/ml; response normalised to anti-human IgG surface and to the unstressed sample; after 14 d at 37 °C pH 7.4
T1 construct: IgG format of this reagent is not described further; immobilised on a CAP chip; also called CD3 IgG (P035.093)
Method: Therefore, they were analyzed for thermal stability and remaining target binding after 14 d stress conditions (40° C. at pH6.0 or 37° C. at pH7.4).
(§1) Flow cell 1 was kept as mock surface. […] Dissociation was monitored for 30 s, the flow rate was set to 5 μl/min. The CAP chip was regenerated by injecting a mix of NaOH and Guadinium-hydrochloride for 120 s, provided in the biotin capture kit. Bulk refractive index differences were corrected by subtracting the response obtained from flow cell 1 (mock surface).

[2] = target: T1, biotinylated anti-human CD3 IgG …; assay: SPR; biotinylated anti-CD3 P035.093 IgG on CAP chip, anti-idiotypic IgG at 1 µg/ml; response normalised to anti-human IgG surface and to the unstressed sample; after 14 d at 40 °C pH 6.0
Method: as §1

[3] = target: T2, Human CD3ε stalk-Fc(knob)-Avi/CD3δ stalk-Fc(hole) (human); assay: SPR, biotinylated human CD3ε/δ on SA chip, TCB at 2 µg/ml; response normalised to anti-huIgG capture and referenced to the unstressed sample; after 2 weeks at pH 6.0/40 °C
T2 construct: Heterodimeric Fc fusion; also called human CD3ε/δ; Human CD3 epsilon stalk-Fc(knob)-Avi
Method: (§2) In order to assess the effect of the deamidation site removal and its effect on the stability of the antibodies, the optimized anti-CD3 antibodies (in TCB format) were incubated for 14 days at 37° C., pH 7.4 and at 40° C., pH 6 and further analyzed by SPR for their binding capability to human CD3ε/δ. Samples stored at −80° C. pH 6 were used as reference. The reference samples and the samples stressed at 40° C. were in 20 mM His, 140 mM NaCl, pH 6.0, and the samples stressed at 37° C. in PBS, pH 7.4, all at a concentration of 1.0 mg/ml. After the stress period (14 days) samples in PBS were dialyzed back to 20 mM His, 140 mM NaCl, pH 6.0 for further analysis.
(§3) All SPR experiments were performed on a Biacore T200 instrument (GE Healthcare) at 25° C. with HBS-P+ (10 mM HEPES, 150 mM NaCl pH 7.4, 0.05% Surfactant P20) as running and dilution buffer. Biotinylated human CD3ε/δ (see Example 3, SEQ ID NOs 41 and 42) as well as biotinylated anti-huIgG (Capture Select, Thermo Scientific, #7103262100) were immobilized on a Series S Sensor Chip SA (GE Healthcare, #29104992), resulting in surface densities of at least 1000 resonance units (RU). Anti-CD3 antibodies with a concentration of 2 μg/ml were injected for 30 s at a flow rate of 5 μl/min, and dissociation was monitored for 120 s. The surface was regenerated by injecting 10 mM glycine pH 1.5 for 60 s. Bulk refractive index differences were corrected by subtracting blank injections and by subtracting the response obtained from a blank control flow cell. For evaluation, the binding response 5 seconds after injection end was taken. To normalize the binding signal, the CD3 binding was divided by the anti-huIgG response (the signal (RU) obtained upon capture of the CD3 antibody on the immobilized anti-huIgG antibody). The relative binding activity was calculated by referencing each temperature stressed sample to the corresponding, non-stressed sample.

[4] = target: T2, Human CD3ε stalk-Fc(knob)-Avi/CD3δ …; assay: SPR, biotinylated human CD3ε/δ on SA chip, TCB at 2 µg/ml; response normalised to anti-huIgG capture and referenced to the unstressed sample; after 2 weeks at pH 7.4/37 °C
Method: as §2, §3

T1 sequence (VH, as listed by the source, chain 1 of 2): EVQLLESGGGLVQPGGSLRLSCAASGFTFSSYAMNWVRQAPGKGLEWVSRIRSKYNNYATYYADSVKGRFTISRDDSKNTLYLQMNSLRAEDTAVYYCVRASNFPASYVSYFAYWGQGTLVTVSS
T1 sequence (VL, as listed by the source, chain 2 of 2): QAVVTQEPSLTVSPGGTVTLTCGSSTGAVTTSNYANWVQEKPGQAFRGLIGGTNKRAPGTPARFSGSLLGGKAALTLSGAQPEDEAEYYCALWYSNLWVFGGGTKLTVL

B1: Humanized variant H3L3 of anti-idiotypic antibody 4.24.72 (IgG) (antibody, V domains shown)
VH: QVQLVQSGSELKKPGASVKVSCKASGYTVTDYSMNWVRQAPGQGLEWMGWINTETGEPRYTQGFKGRFVFSLDTSVSTAYLQISSLKAEDTAVYYCAREGDYDVFDYWGQGTLVTVSS
VL: DIVMTQSPDSLAVSLGERATINCRASKSVSTSSYSYMHWYQQKPGQPPKLLIKYVSYLESGVPDRFSGSGSGTDFTLTISSLQAEDVAVYYCQQSREFPYTFGQGTKLEIK
notes: Produced and purified as IgG; also called Mask humanization variant H3L3
Q: With B1 as the binder, how does the “Rel. active concentration [%]” value [1] read?
A: The value was 87%.

Q: What about the “Rel. active concentration [%]” value [2] of the same binder?
A: The value was 97%.

B2: Humanized variant H7L5 of anti-idiotypic antibody 4.24.72 (IgG) (antibody, V domains shown)
VH: QVQLVQSGAEVKKPGASVKVSCKASGYTVTDYSMNWVRQAPGQGLEWMGWINTETGEPRYTDDFKGRVTMTRDTSISTAYMELSRLRSDDTAVYYCAREGDYDVFDYWGQGTLVTVSS
VL: DIVMTQSPDSLAVSLGERATINCRASKSVSTSSYSYMHWYQQKPGQPPKLLIYYVSYLESGVPDRFSGSGSGTDFTLTISSLQAEDVAVYYCQHSREFPYTFGQGTKLEIK
notes: Produced and purified as IgG; also called Mask humanization variant H7L5
Q: B2 was tested. Which “Rel. active concentration [%]” value [1] did it give?
A: Its value is 80%.

Q: What about the “Rel. active concentration [%]” value [2] of the same binder?
A: The value was 98%.

B3: TYRP1 TCB containing the parental CD3 binder CD3orig (bispecific antibody, human IgG1, kappa, L234A L235A)
heavy 1: not shown
heavy 2: QVQLVQSGAEVKKPGASVKVSCKASGFNIKDYFLHWVRQAPGQGLEWMGWINPDNGNTVYAQKFQGRVTMTADTSTSTVYMELSSLRSEDTAVYYCTRRDYTYEKAALDYWGQGTLVTVSSASTKGPSVFPLAPSSKSTSGGTAALGCLVEDYFPEPVTVSWNSGALTSGVHTFPAVLQSSGLYSLSSVVTVPSSSLGTQTYICNVNHKPSNTKVDEKVEPKSCDKTHTCPPCPAPEAAGGPSVFLFPPKPKDTLMISRTPEVTCVVVDVSHEDPEVKFNWYVDGVEVHNAKTKPREEQYNSTYRVVSVLTVLHQDWLNGKEYKCKVSNKALGAPIEKTISKAKGQPREPQVCTLPPSRDELTKNQVSLSCAVKGFYPSDIAVEWESNGQPENNYKTTPPVLDSDGSFFLVSKLTVDKSRWQQGNVFSCSVMHEALHNHYTQKSLSLSP
light 1: DIQMTQSPSSLSASVGDRVTITCRASGNIYNYLAWYQQKPGKVPKLLIYDAKTLADGVPSRFSGSGSGTDFTLTISSLQPEDVATYYCQHFWSLPFTFGQGTKLEIKRTVAAPSVFIFPPSDRKLKSGTASVVCLLNNFYPREAKVQWKVDNALQSGNSQESVTEQDSKDSTYSLSSTLTLSKADYEKHKVYACEVTHQGLSSPVTKSFNRGEC
light 2: EVQLLESGGGLVQPGGSLRLSCAASGFTFSTYAMNWVRQAPGKGLEWVSRIRSKYNNYATYYADSVKGRFTISRDDSKNTLYLQMNSLRAEDTAVYYCVRHGNFGNSYVSWFAYWGQGTLVTVSSASVAAPSVFIFPPSDEQLKSGTASVVCLLNNFYPREAKVQWKVDNALQSGNSQESVTEQDSKDSTYSLSSTLTLSKADYEKHKVYACEVTHQGLSSPVTKSFNRGEC
notes: also called CD3orig in TCB format
Q: With B3 as the binder, how does the “binding activity [%]” value [3] read?
A: The value was 95%.

Q: And the “binding activity [%]” value [4]?
A: Its value is 65%.

B4: TYRP1 TCB containing optimized anti-CD3 antibody clone P004.042 (bispecific antibody, human IgG1, kappa, L234A L235A)
heavy 1: not shown
heavy 2: QVQLVQSGAEVKKPGASVKVSCKASGFNIKDYFLHWVRQAPGQGLEWMGWINPDNGNTVYAQKFQGRVTMTADTSTSTVYMELSSLRSEDTAVYYCTRRDYTYEKAALDYWGQGTLVTVSSASTKGPSVFPLAPSSKSTSGGTAALGCLVEDYFPEPVTVSWNSGALTSGVHTFPAVLQSSGLYSLSSVVTVPSSSLGTQTYICNVNHKPSNTKVDEKVEPKSCDKTHTCPPCPAPEAAGGPSVFLFPPKPKDTLMISRTPEVTCVVVDVSHEDPEVKFNWYVDGVEVHNAKTKPREEQYNSTYRVVSVLTVLHQDWLNGKEYKCKVSNKALGAPIEKTISKAKGQPREPQVCTLPPSRDELTKNQVSLSCAVKGFYPSDIAVEWESNGQPENNYKTTPPVLDSDGSFFLVSKLTVDKSRWQQGNVFSCSVMHEALHNHYTQKSLSLSP
light 1: DIQMTQSPSSLSASVGDRVTITCRASGNIYNYLAWYQQKPGKVPKLLIYDAKTLADGVPSRFSGSGSGTDFTLTISSLQPEDVATYYCQHFWSLPFTFGQGTKLEIKRTVAAPSVFIFPPSDRKLKSGTASVVCLLNNFYPREAKVQWKVDNALQSGNSQESVTEQDSKDSTYSLSSTLTLSKADYEKHKVYACEVTHQGLSSPVTKSFNRGEC
light 2: EVQLLESGGGLVQPGGSLRLSCAASGFQFDNYAMNWVRQAPGKGLEWVSRIRTKYNEYATYYADSVKGRFTISRDDSKNTLYLQMNSLRAEDTAVYYCVRASNFPQSYVSYFGYWGQGTLVTVSSASVAAPSVFIFPPSDEQLKSGTASVVCLLNNFYPREAKVQWKVDNALQSGNSQESVTEQDSKDSTYSLSSTLTLSKADYEKHKVYACEVTHQGLSSPVTKSFNRGEC
notes: 2+1 IgG CrossFab, inverted, with charge modifications; knob-into-hole, P329G L234A L235A; also called CD3opt (P004.042)
Q: For B4, which “binding activity [%]” value [3] is on record?
A: The value was 98%.

Q: What about the “binding activity [%]” value [4] of the same binder?
A: The value was 98%.

B5: TYRP1 TCB containing optimized anti-CD3 antibody clone P021.045 (bispecific antibody, human IgG1, kappa, L234A L235A)
heavy 1: not shown
heavy 2: QVQLVQSGAEVKKPGASVKVSCKASGFNIKDYFLHWVRQAPGQGLEWMGWINPDNGNTVYAQKFQGRVTMTADTSTSTVYMELSSLRSEDTAVYYCTRRDYTYEKAALDYWGQGTLVTVSSASTKGPSVFPLAPSSKSTSGGTAALGCLVEDYFPEPVTVSWNSGALTSGVHTFPAVLQSSGLYSLSSVVTVPSSSLGTQTYICNVNHKPSNTKVDEKVEPKSCDKTHTCPPCPAPEAAGGPSVFLFPPKPKDTLMISRTPEVTCVVVDVSHEDPEVKFNWYVDGVEVHNAKTKPREEQYNSTYRVVSVLTVLHQDWLNGKEYKCKVSNKALGAPIEKTISKAKGQPREPQVCTLPPSRDELTKNQVSLSCAVKGFYPSDIAVEWESNGQPENNYKTTPPVLDSDGSFFLVSKLTVDKSRWQQGNVFSCSVMHEALHNHYTQKSLSLSP
light 1: DIQMTQSPSSLSASVGDRVTITCRASGNIYNYLAWYQQKPGKVPKLLIYDAKTLADGVPSRFSGSGSGTDFTLTISSLQPEDVATYYCQHFWSLPFTFGQGTKLEIKRTVAAPSVFIFPPSDRKLKSGTASVVCLLNNFYPREAKVQWKVDNALQSGNSQESVTEQDSKDSTYSLSSTLTLSKADYEKHKVYACEVTHQGLSSPVTKSFNRGEC
light 2: EVQLLESGGGLVQPGGSLRLSCAASGFTFSSYAMNWVRQAPGKGLEWVSRIRSKYNNYATYYADSVKGRFTISRDDSKNTLYLQMNSLRAEDTAVYYCVRASNFPSSYVSYFAYWGQGTLVTVSSASVAAPSVFIFPPSDEQLKSGTASVVCLLNNFYPREAKVQWKVDNALQSGNSQESVTEQDSKDSTYSLSSTLTLSKADYEKHKVYACEVTHQGLSSPVTKSFNRGEC
notes: 2+1 IgG CrossFab, inverted, with charge modifications; knob-into-hole, P329G L234A L235A; also called CD3opt (P021.045)
Q: B5 was tested. Which “binding activity [%]” value [3] did it give?
A: The value was 99%.

Q: And the “binding activity [%]” value [4]?
A: The value was 95%.

B6: TYRP1 TCB containing optimized anti-CD3 antibody clone P035.064 (bispecific antibody, human IgG1, kappa, L234A L235A)
heavy 1: not shown
heavy 2: QVQLVQSGAEVKKPGASVKVSCKASGFNIKDYFLHWVRQAPGQGLEWMGWINPDNGNTVYAQKFQGRVTMTADTSTSTVYMELSSLRSEDTAVYYCTRRDYTYEKAALDYWGQGTLVTVSSASTKGPSVFPLAPSSKSTSGGTAALGCLVEDYFPEPVTVSWNSGALTSGVHTFPAVLQSSGLYSLSSVVTVPSSSLGTQTYICNVNHKPSNTKVDEKVEPKSCDKTHTCPPCPAPEAAGGPSVFLFPPKPKDTLMISRTPEVTCVVVDVSHEDPEVKFNWYVDGVEVHNAKTKPREEQYNSTYRVVSVLTVLHQDWLNGKEYKCKVSNKALGAPIEKTISKAKGQPREPQVCTLPPSRDELTKNQVSLSCAVKGFYPSDIAVEWESNGQPENNYKTTPPVLDSDGSFFLVSKLTVDKSRWQQGNVFSCSVMHEALHNHYTQKSLSLSP
light 1: DIQMTQSPSSLSASVGDRVTITCRASGNIYNYLAWYQQKPGKVPKLLIYDAKTLADGVPSRFSGSGSGTDFTLTISSLQPEDVATYYCQHFWSLPFTFGQGTKLEIKRTVAAPSVFIFPPSDRKLKSGTASVVCLLNNFYPREAKVQWKVDNALQSGNSQESVTEQDSKDSTYSLSSTLTLSKADYEKHKVYACEVTHQGLSSPVTKSFNRGEC
light 2: EVQLLESGGGLVQPGGSLRLSCAASGFDFDNYAMNWVRQAPGKGLEWVSRIRSKHNGYATYYADSVKGRFTISRDDSKNTLYLQMNSLRAEDTAVYYCVRASNFPSSYVSYFGYWGQGTLVTVSSASVAAPSVFIFPPSDEQLKSGTASVVCLLNNFYPREAKVQWKVDNALQSGNSQESVTEQDSKDSTYSLSSTLTLSKADYEKHKVYACEVTHQGLSSPVTKSFNRGEC
notes: 2+1 IgG CrossFab, inverted, with charge modifications; knob-into-hole, P329G L234A L235A; also called CD3opt (P035.064)
Q: What does the source list for B6?
A: binding activity [%] [3]: 97%; binding activity [%] [4]: 96%
